Measured values reported in the supplement of paper PMC7125110.
± gives the standard error. For some of these results: Variants at the floor of the assay were thinned out.

B1: glmS ribozyme (parent)
chain: AUAAAAGCGCCAGAACUACAGAAAUGUAGUUGACGAGGAGGAGGUUUAUCGAAUUUUCGGCGGAUGCCUCCAAA

How the values were obtained:
Settings in all cases: with glucosamine-6-phosphate
glucosamine-6-phosphate [1] = variants of: B1; test: kcat; higher = faster cleavage; RNA array
In short: (§1)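 On sequenced MiSeq chips, barcoded ribozyme variants were made in situ by E. coli RNA polymerase and followed at 37 °C through a hybridised Cy3 probe. Glucosamine-6-phosphate was flowed in at 40 μM to 10 mM in HEPES/KCl/Mg(OAc)2 buffer. Exponential fits to normalised per-tile medians gave kobs, and weighted Michaelis–Menten fits gave kcat and KM.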

glucosamine-6-phosphate [2] = variants of: B1; test: self-cleavage kobs at 40 uM GlcN6P; higher = faster cleavage; RNA array
In short: as §1

glucosamine-6-phosphate [3] = variants of: B1; test: self-cleavage kobs at 160 uM GlcN6P; higher = faster cleavage; RNA array
In short: as §1

glucosamine-6-phosphate [4] = variants of: B1; test: self-cleavage kobs at 640 uM GlcN6P; higher = faster cleavage; RNA array
In short: as §1

glucosamine-6-phosphate [5] = variants of: B1; test: self-cleavage kobs at 2500 uM GlcN6P; higher = faster cleavage; RNA array
In short: as §1

glucosamine-6-phosphate [6] = variants of: B1; test: self-cleavage kobs at 10000 uM GlcN6P; higher = faster cleavage; RNA array
In short: as §1

glucosamine-6-phosphate [7] = variants of: B1; test: KM; higher = weaker cofactor use; RNA array
In short: as §1

U31C U54C
kcat (glucosamine-6-phosphate [1]): 0.00689 ± 0.0027 s⁻¹
self-cleavage kobs at 40 uM GlcN6P (glucosamine-6-phosphate [2]): 0.000101 ± 1.8e-05 s⁻¹
self-cleavage kobs at 160 uM GlcN6P (glucosamine-6-phosphate [3]): 0.000254 ± 4.6e-05 s⁻¹
self-cleavage kobs at 640 uM GlcN6P (glucosamine-6-phosphate [4]): 0.00134 ± 0.00024 s⁻¹
self-cleavage kobs at 2500 uM GlcN6P (glucosamine-6-phosphate [5]): 0.00166 ± 0.00057 s⁻¹
self-cleavage kobs at 10000 uM GlcN6P (glucosamine-6-phosphate [6]): 0.00579 ± 0.00087 s⁻¹

U31C U54G
kcat (glucosamine-6-phosphate [1]): 0.00413 ± 0.0012 s⁻¹
KM (glucosamine-6-phosphate [7]): 1770 ± 710 µM
self-cleavage kobs at 40 uM GlcN6P (glucosamine-6-phosphate [2]): 0.000143 ± 2.5e-05 s⁻¹
self-cleavage kobs at 160 uM GlcN6P (glucosamine-6-phosphate [3]): 0.000283 ± 4.9e-05 s⁻¹
self-cleavage kobs at 640 uM GlcN6P (glucosamine-6-phosphate [4]): 0.00116 ± 0.00017 s⁻¹
self-cleavage kobs at 2500 uM GlcN6P (glucosamine-6-phosphate [5]): 0.00211 ± 0.0004 s⁻¹
self-cleavage kobs at 10000 uM GlcN6P (glucosamine-6-phosphate [6]): 0.00388 ± 0.00065 s⁻¹

U31C G40A
kcat (glucosamine-6-phosphate [1]): 0.00072 ± 0.00018 s⁻¹
KM (glucosamine-6-phosphate [7]): 1300 ± 550 µM
self-cleavage kobs at 160 uM GlcN6P (glucosamine-6-phosphate [3]): 6.18e-05 ± 1.5e-05 s⁻¹
self-cleavage kobs at 640 uM GlcN6P (glucosamine-6-phosphate [4]): 0.000297 ± 4.4e-05 s⁻¹
self-cleavage kobs at 2500 uM GlcN6P (glucosamine-6-phosphate [5]): 0.000647 ± 0.00012 s⁻¹
self-cleavage kobs at 10000 uM GlcN6P (glucosamine-6-phosphate [6]): 0.000532 ± 0.0001 s⁻¹

U31C G40C
kcat (glucosamine-6-phosphate [1]): 0.000274 ± 4.9e-05 s⁻¹
self-cleavage kobs at 640 uM GlcN6P (glucosamine-6-phosphate [4]): 0.000125 ± 5e-05 s⁻¹
self-cleavage kobs at 2500 uM GlcN6P (glucosamine-6-phosphate [5]): 0.000177 ± 4e-05 s⁻¹
self-cleavage kobs at 10000 uM GlcN6P (glucosamine-6-phosphate [6]): 0.000287 ± 6.9e-05 s⁻¹

U31G U45A A52G
kcat (glucosamine-6-phosphate [1]): 0.000908 ± 0.00012 s⁻¹
KM (glucosamine-6-phosphate [7]): 4890 ± 1500 µM
self-cleavage kobs at 2500 uM GlcN6P (glucosamine-6-phosphate [5]): 0.000361 ± 0.00013 s⁻¹
self-cleavage kobs at 10000 uM GlcN6P (glucosamine-6-phosphate [6]): 0.000604 ± 8.7e-05 s⁻¹

G32U C67U
kcat (glucosamine-6-phosphate [1]): 0.00034 ± 4.6e-05 s⁻¹
KM (glucosamine-6-phosphate [7]): 1790 ± 580 µM
self-cleavage kobs at 640 uM GlcN6P (glucosamine-6-phosphate [4]): 0.000104 ± 1.3e-05 s⁻¹
self-cleavage kobs at 2500 uM GlcN6P (glucosamine-6-phosphate [5]): 0.000166 ± 2.2e-05 s⁻¹
self-cleavage kobs at 10000 uM GlcN6P (glucosamine-6-phosphate [6]): 0.000303 ± 2.5e-05 s⁻¹

U31G A64G
kcat (glucosamine-6-phosphate [1]): 0.0127 ± 0.0021 s⁻¹
KM (glucosamine-6-phosphate [7]): 1620 ± 370 µM
self-cleavage kobs at 40 uM GlcN6P (glucosamine-6-phosphate [2]): 0.000372 ± 5.2e-05 s⁻¹
self-cleavage kobs at 160 uM GlcN6P (glucosamine-6-phosphate [3]): 0.000974 ± 0.00016 s⁻¹
self-cleavage kobs at 640 uM GlcN6P (glucosamine-6-phosphate [4]): 0.00368 ± 0.00071 s⁻¹
self-cleavage kobs at 2500 uM GlcN6P (glucosamine-6-phosphate [5]): 0.00704 ± 0.0013 s⁻¹
self-cleavage kobs at 10000 uM GlcN6P (glucosamine-6-phosphate [6]): 0.0116 ± 0.0017 s⁻¹

G32A G44A
kcat (glucosamine-6-phosphate [1]): 6.55e-05 ± 1.7e-05 s⁻¹

U31C G59U C68A
kcat (glucosamine-6-phosphate [1]): 3.76e-05 ± 1.6e-05 s⁻¹

U31A U55C
kcat (glucosamine-6-phosphate [1]): 0.0168 ± 0.0039 s⁻¹
KM (glucosamine-6-phosphate [7]): 3130 ± 990 µM
self-cleavage kobs at 40 uM GlcN6P (glucosamine-6-phosphate [2]): 0.000283 ± 4.3e-05 s⁻¹
self-cleavage kobs at 160 uM GlcN6P (glucosamine-6-phosphate [3]): 0.000647 ± 0.00012 s⁻¹
self-cleavage kobs at 640 uM GlcN6P (glucosamine-6-phosphate [4]): 0.00293 ± 0.00082 s⁻¹
self-cleavage kobs at 2500 uM GlcN6P (glucosamine-6-phosphate [5]): 0.00826 ± 0.0023 s⁻¹
self-cleavage kobs at 10000 uM GlcN6P (glucosamine-6-phosphate [6]): 0.0127 ± 0.0018 s⁻¹

G32U U54A
kcat (glucosamine-6-phosphate [1]): 0.00121 ± 4.3e-05 s⁻¹
KM (glucosamine-6-phosphate [7]): 6510 ± 320 µM
self-cleavage kobs at 640 uM GlcN6P (glucosamine-6-phosphate [4]): 0.000107 ± 1.4e-05 s⁻¹
self-cleavage kobs at 2500 uM GlcN6P (glucosamine-6-phosphate [5]): 0.000344 ± 4.3e-05 s⁻¹
self-cleavage kobs at 10000 uM GlcN6P (glucosamine-6-phosphate [6]): 0.000726 ± 0.0001 s⁻¹

G32A A53C
kcat (glucosamine-6-phosphate [1]): 0.00145 ± 0.00063 s⁻¹
self-cleavage kobs at 160 uM GlcN6P (glucosamine-6-phosphate [3]): 8.36e-05 ± 1.6e-05 s⁻¹
self-cleavage kobs at 640 uM GlcN6P (glucosamine-6-phosphate [4]): 0.000126 ± 1.8e-05 s⁻¹
self-cleavage kobs at 2500 uM GlcN6P (glucosamine-6-phosphate [5]): 0.0004 ± 7.3e-05 s⁻¹
self-cleavage kobs at 10000 uM GlcN6P (glucosamine-6-phosphate [6]): 0.000944 ± 0.00012 s⁻¹

U31G G40C
kcat (glucosamine-6-phosphate [1]): 0.00108 ± 0.00013 s⁻¹
KM (glucosamine-6-phosphate [7]): 1280 ± 250 µM
self-cleavage kobs at 40 uM GlcN6P (glucosamine-6-phosphate [2]): 2.49e-05 ± 8e-06 s⁻¹
self-cleavage kobs at 160 uM GlcN6P (glucosamine-6-phosphate [3]): 0.000124 ± 2e-05 s⁻¹
self-cleavage kobs at 640 uM GlcN6P (glucosamine-6-phosphate [4]): 0.000397 ± 5.8e-05 s⁻¹
self-cleavage kobs at 2500 uM GlcN6P (glucosamine-6-phosphate [5]): 0.000864 ± 0.00017 s⁻¹
self-cleavage kobs at 10000 uM GlcN6P (glucosamine-6-phosphate [6]): 0.0009 ± 0.00012 s⁻¹

G32A G41A
kcat (glucosamine-6-phosphate [1]): 0.00039 ± 9.1e-05 s⁻¹
KM (glucosamine-6-phosphate [7]): 4740 ± 2000 µM
self-cleavage kobs at 640 uM GlcN6P (glucosamine-6-phosphate [4]): 6.12e-05 ± 1.1e-05 s⁻¹
self-cleavage kobs at 2500 uM GlcN6P (glucosamine-6-phosphate [5]): 0.000116 ± 1.6e-05 s⁻¹
self-cleavage kobs at 10000 uM GlcN6P (glucosamine-6-phosphate [6]): 0.000279 ± 3e-05 s⁻¹

G32C A52U
kcat (glucosamine-6-phosphate [1]): < 1e-05 s⁻¹
self-cleavage kobs at 40 uM GlcN6P (glucosamine-6-phosphate [2]): < 1e-05 s⁻¹

G32A A64U
kcat (glucosamine-6-phosphate [1]): < 1e-05 s⁻¹
self-cleavage kobs at 40 uM GlcN6P (glucosamine-6-phosphate [2]): < 1e-05 s⁻¹
self-cleavage kobs at 160 uM GlcN6P (glucosamine-6-phosphate [3]): < 1e-05 s⁻¹
self-cleavage kobs at 640 uM GlcN6P (glucosamine-6-phosphate [4]): < 1e-05 s⁻¹
